{"source": "paper PMC9572316", "about": "“Ultrathin Covalent Organic Framework Nanosheets/Ti3C2Tx-Based Photoelectrochemical Biosensor for Efficient Detection of Prostate-Specific Antigen”", "molecular_target": "prostate-specific antigen (PSA) (UniProt P07288 25-261)", "sequence (P07288 25-261)": "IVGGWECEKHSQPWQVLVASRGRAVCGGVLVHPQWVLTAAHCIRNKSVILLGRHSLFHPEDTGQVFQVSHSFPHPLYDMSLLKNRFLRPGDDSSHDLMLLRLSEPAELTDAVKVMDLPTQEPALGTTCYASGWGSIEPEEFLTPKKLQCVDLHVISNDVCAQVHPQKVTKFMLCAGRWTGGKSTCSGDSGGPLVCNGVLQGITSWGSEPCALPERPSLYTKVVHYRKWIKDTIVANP", "test": "photoelectrochemical aptasensor (aptamer immobilized on TTPA-CONs/Ti3C2Tx/GCE); 10 ng/mL PSA; photocurrent falls from 3.6 to 1.8 uA after PSA; BSA-blocked electrode; PSA incubated 120 min at 4 °C on BSA-blocked aptamer electrode; photocurrent in 0.1 M phosphate buffer pH 7.4, room temperature, no bias (Section 2.3 states Tris-HCl pH 7.4 as optimum)", "details": "protein: commercial", "data": [{"binder": "ATTAAAGCTCGCCATCAAATAGC (ssDNA, 5'-NH2-C6)", "note": "[PSA aptamer (NH2-C6)]", "values": [{"measurement": "binding result", "result": "binds"}]}]}
